Experimental findings from US7193044B1, “Compounds and methods for regulating apoptosis, and methods of making and screening for compounds that regulate apoptosis” (Immunogen, Inc., priority 2000, dated 2007) are described below.

The target in assay [1] is T1, PKA (catalytic subunit from bovine heart) (Bos taurus, UniProt P00517).
T1 construct: 11 units PKA (catalytic subunit from bovine heart, Calbiochem); purchased Calbiochem; host or cells: bovine heart
Description: In vitro kinase assay, phosphorylation of BAD and BAD mutants by PKA. Particulars: for in vitro phosphorylation by PKA: purified GST-tagged polypeptides, gamma-32P-ATP, autoradiography. Format: biochemical. The protocol: The ability of full-length BAD and mutant BAD S155A to bind Bcl-XL was also determined (FIG. 3(c)). Full-length BAD (“WT”) and mutant BAD S155A (“S155A”) were produced by in vitro translation and labeled with ^35S-methionine therein. The labeled proteins were then incubated with PKA (“+”) in the presence of unlabeled ATP or a buffer control (“−”). Following the kinase reactions, aliquots of each sample of the four samples were incubated with either GST or GST-Bcl-XL. The protein complex were captured on glutathione-agarose beads. Proteins bound to the beads (“Bound”) (lower panel) and samples of the reactions collected prior to incubation with the beads (“Total”) (upper panel) were analyzed by SDS-PAGE followed by autoradiography.
The GST-tagged BAD and BAD mutants were then expressed individually in cells and the purified GST-tagged polypeptides incubated with purified PKA, in the presence of ^32P radiolabel. A western blot, probed with anti-BAD antibody, was performed on the incubated GST-tagged BAD and BAD mutants to determine whether PKA could phosphorylate the BAD and/or mutant BAD in vitro. The GST-tagged BAD and BAD mutants phosphorylated by PKA could be detected directly by autoradiography due to the incorporation of ^32P radiolabel when the polypeptides were phosphorylated (FIG. 4, upper panel), whereas the total amount of BAD and mutant BAD present in the in vitro reaction was detected by the anti-BAD antibody probe (FIG. 4, lower panel).
In vitro kinase assays were carried out in 30 μl volumes containing 10 mM HEPES buffer, pH 7.5, 100 mM NaCl, 12 mM MgCl2, 1 mM dithiothreitol, […] γ^32P-ATP ([…], NEN), 11 units PKA (catalytic subunit from bovine heart, Calbiochem), and 1 μg purified GST-BAD. Reactions were incubated for 30 min at 30° C. and terminated by the addition of SDS-PAGE sample buffer. Samples were run on a 4–20% SDS-PAGE gel (Novex), transferred to a nitrocellulose membrane and phosphorylated GST-BAD was visualized by autoradiography. To verify that equal amounts of GST-BAD substrates were used, the nitrocellulose was subjected to western blot analysis with 133 ng/ml anti-BAD antibody (C-20).

Another assay has as its system HeLa cells. Briefly: Beta-gal ELISA apoptosis assay in transfected HeLa cells. Format: cell-based, human. Particulars: HeLa cells, 24 hours post-transfection. The protocol: Because BAD Ser155 phosphorylation, like Ser136 phosphorylation, prevents BAD from binding to Bcl-XL (FIG. 1), it was possible that by analogy, Ser155 dephosphorylation promotes cell death. To test this idea, HeLa cells were co-transfected with BAD or various BAD serine mutants and a β-gal reporter plasmid. Twenty-four hours post-transfection, cell viability was analyzed by β-gal ELISA.
To test this idea, HeLa cells were again co-transfected with BAD or various BAD serine mutants and a β-gal reporter plasmid. Forskolin was then added to half of the cultures while the other half was left untreated. Beta-gal ELISAs were performed 24 hours post transfection. […] Thus, phosphorylation of Ser155 rescues cells from BAD-induced apoptosis, while substitution of Ser155 with a nonphosphorylatable residue results in increased cell death and the failure of cells to be protected from induced PKA activity.
Beta-gal ELISA assays were performed using the β-gal ELISA system from Boehringer Mannheim, according to manufacture's instructions. Cells were transfected with BAD (or BAD mutant) and β-gal in a ratio of 5:1. The transfected cells were trypsinized and distributed into 96-well tissue culture plates. Twenty-four hours after transfection, cell extracts were obtained by lysing the cells in lysis buffer. Cell extracts (200 μl) were then added to anti-β-gal-coated microtiter plates (MTP). The MTPs were foil-covered and incubated for one hour at 37° C. Solutions were then decanted and the MTPs were washed, followed by the addition of 200 μl of anti-β-gal-DIG working solution, and incubation for an additional hour as described above. Solutions were again decanted, the MTPs washed and 200 μl of DIG-POD working solution were added. The MTPs were incubated for another hour at 37° C., the solution decanted, and the wells washed. 200 μl of substrate with enhancer were added to each well and incubated at room temperature until color development. The β-gal activity was measured by the absorbance of the sample at […]. Data were based on triplicate wells with standard deviations calculated.
In general terms: An ELISA detects its analyte on a solid surface through an enzyme-linked reagent.

“Also recorded” adds a separate entry of the source.

B1: BAD S155A: mutant of shorter murine BAD, serine corresponding to Ser155 substituted with alanine; HA- or GST-tagged (protein)
chain: MFQIPEFEPSEQEDASATDRGLGPSLTEDQPGPYLAPGLLGSNIHQQGRAATNSHHGGAGAMETRSRHSSYPAGTEEDEGMEEELSPFRGRSRSAPPNLWAAQRYGRELRRMADEFEGSFKGLPRPKSAGTATQMRQSAGWTRIIQSWWDRNLGKGGSTPSQ
modifications: left off: small tags and cut ends
notes: mutant of shorter murine BAD, serine corresponding to Ser155 substituted with alanine; HA- or GST-tagged
As to B1, in assay [1] (compared to the wild-type mammalian BAD substrate), the “reduction of PKA catalyzed 32P-ATP incorporation” value is recorded as “more than 90%”. In addition, the “in vitro phosphorylation by PKA” value is recorded as “low, but detectable level” in assay [1] and “dramatically reduced the phosphorylation” in assay [1] (listed as GST-BAD S155A). For the same molecule, the “effect of expressed BAD mutant on cellular survival / cell death” value in the assay on HeLa cells is reported as “greatest effect on cellular survival, with a significant increase in cell death compared to the control; also recorded: enhanced apoptotic activity compared with the wild-type mammalian BAD”.
